Test results published in paper PMC4692269.
Numbering of substitutions follows the chain as printed.

B1: PGT124 (mature bnAb of the PGT121 family) (Fab, V domains shown)
VH: QVQLQESGPGLVRPSETLSVTCIVSGGSISNYYWTWIRQSPGKGLEWIGYISDRETTTYNPSLNSRAVISRDTSKNQLSLQLRSVTTADTAIYFCATARRGQRIYGVVSFGEFFYYYYMDVWGKGTAVTVSS
VL: SYVSPLSVALGETARISCGRQALGSRAVQWYQHKPGQAPILLIYNNQDRPSGIPERFSGTPDINFGTTATLTISGVEVGDEADYYCHMWDSRSGFSWSFGGATRLTVL
B2: 32H+3L Fab (inferred intermediate of the PGT124 branch) (Fab, V domains shown)
VH: B1 VH with R13K, N64K, A67V, Q81K, R83N, T87A, F94Y
VL: SYVLTQPSQLSVAPGETARISCGGRSLGSRAVQWYQQKPGQAPVLVIYNNQDRPSGIPERFSGSPDSNFGTTATLTISRVEAGDEADYYCHMWDSRSAINWVFGGGTKLTVL
B3: 9H+3L Fab (inferred intermediate of the PGT122 branch) (Fab, V domains shown)
VH: QVQLQESGPGLVKPSETLSLTCSVSGASISDHYWSWIRQSPGKGLEWIGYVYDSGDTNYNPSLKSRVNLSLDTSKNQVSLSLTAVTAADSAIYYCARTQHGRRIYGIVAFREWFTYFYMDVWGQGTPVTVSS
VL: B2 VL
B4: 3H+3L Fab (inferred early precursor of the PGT121 family) (Fab, V domains shown)
VH: QVQLQESGPGLVKPSETLSLTCTVSGGSISNYYWSWIRQSPGKGLEWIGYISDSESTNYNPSLKSRVIISVDTSKNQLSLKLNSVTAADSAIYYCARAQQGKRIYGMVSFGEFFYYYYMDVWGKGTTVTVSS
VL: B2 VL

How the values were obtained:
[1] = target: BG505 SOSIP.664 trimer, wild type, produced in 293S cells (HIV-1 (clade A strain BG505)) (UniProt Q2N0S6); assay: ITC
[2] = target: BG505 SOSIP.664-N137A trimer, produced in 293S cells (HIV-1 (clade A strain BG505)); assay: ITC

Row | Molecule | Kd [1] [nM] | fold higher affinity against 32H+3L on the same trimer [1] [fold] | fold enhanced affinity against its binding to the wild-type trimer [2] [fold] | Kd [2] [nM]
1 | PGT124 (mature bnAb of the PGT121 family) (Fab) | 32 | 13 |  | 
2 | B1 |  |  | 5 | 
3 | B2 |  |  | 16 | 
4 | B3 |  |  | 11 | 
5 | B4 |  |  | 15 | 35
